Target: T1, human mitochondrial HSP60 (Homo sapiens, UniProt P10809)
T1 construct: Dr. W. van Eden, Utrecht University; host or cells: E. coli
Assay: ELISA: binding of HSP60 to immobilized (misfolded) protein ligands
Method: Recombinant human HSP60 with N-terminal His-tag was a kind gift of Dr. R. van der Zee and Prof. Dr. W. van Eden (Institute of Infectious Diseases and Immunology, Faculty of Veterinary Medicine, Utrecht University, Utrecht, The Netherlands), and was supplied in lyophilized form. The HSP60 was produced in E. coli and purified using Nickel-Sepharose. The HSP60 was lyophilized from 20-40 mM ammonium-bicarbonate solution, after purification, and stored at −20° C. The construct lacks the mitochondrial signal sequence. […] Before use, the lyophilized protein is dissolved at room temperature at 1 mg/ml in 20-40 mM NH4HCO3, resulting in a pH of 7.0. Aliquots are stored at −20° C. or −80° C. The mitochondrial HSP60 is a functional dimer of heptamers (MW(HSP60 monomer)=˜58 kDa), and is involved in multimer protein assembling and aids in transport of unfolded proteins across membranes. For the binding studies, at two occasions separate HSP60 solutions were prepared originating from the same batch of purified protein, lyophilized in separate Eppendorf cups.
Binding of chaperones to immobilized (misfolded) protein ligands was determined using an enzyme linked immuno sorbent assay (ELISA) approach. For this purpose 50 μl/well of potential ligands at indicated concentrations or coat buffer only for control and background measurement purposes, were coated overnight at 4° C. or coated for 1 h at room temperature, with motion, in 50 mM NaHCO3 pH 9.6 (coat buffer). In general, ligands were coated at 5 μg/ml, unless stated otherwise. For example, BiP binding peptides 6BB# and oxLDL were coated at 50 μg/ml. Native haemoglobin (Sigma-Aldrich, H7379), albumin, IgIV Gammagard and ovalbumin controls were prepared from lyophilized stocks. The controls were prepared by dissolving lyophilized proteins at 1 mg/ml in PBS upon resuspending by pipetting, followed by a 30 minutes period at the roller device, at room temperature. The protein solutions were centrifuged for 10 minutes at 16,000*g and diluted in coat buffer. After coating the plates were washed at least three times with 50 mM Tris-HCl pH 7.3, 150 mM NaCl, 0.1% v/v Tween20, and blocked with Blocking reagent (Roche Diagnostics, Almere, The Netherlands; 11112589001), for 1 h at room temperature, with motion. Plates were washed three times and incubated in triplicate with indicated chaperone dilution series, at 50 μl/well, for 1 h at room temperature, with constant motion. For HSP90, 5 mM DTT is incorporated in the binding buffer (PBS/0.1% Tween20) to avoid unwanted disulfide bond formation of the HSP90. Plates were washed three times and incubated with anti-FLAG antibody (mouse antibody, M2, peroxidase conjugate; Sigma, A-8592) for BiP-FLAG-His, anti-His-tag antibody (Mouse Monoclonal Antibody, Cat. No. 70796, Novagen [0.2 mg/ml]) for HSP60, a 1:1 mix of 500-fold diluted anti-HSP90beta antibodies (Stressgen, SPA-643 [mouse monoclonal IgM], SPA-646 [rabbit polyclonal]) for HSP90 and an anti-DnaK antibody (Stressgen, 023SPA-880D [mouse monoclonal antibody]) for DnaK. After four wash cycles, secondary antibodies were added to the wells when required, 50 μl/well, for 45′ at room temperature, with motion. RAMPO and SWARPO were used at 3000 times dilution. […] In a second experiment with more immobilized misfolded proteins and controls, the detection of bound HSP90 with the mix of two anti-HSP90 antibodies was achieved by mixing 1:1500 SWARPO with 1:3000 RAMPO. After 5 washes with wash buffer followed by two washes with PBS, binding of antibodies was assessed. Bound anti-FLAG-PO, peroxidase-conjugated rabbit anti-mouse immunoglobulins (RAMPO, P0260, DAKOCytomation, Glostrup, Denmark) or peroxidase-coupled swine anti-rabbit immunoglobulins (SWARPO, P0217, DAKOCytomation) was visualized with tetramethylbenzidine (TMB, #45.01.20,/#45.014.01, Biosource, Nivelles, Belgium). The reaction was stopped after 5 minutes with 1% H2SO4 in H2O. Plates were read at 450 nm. […]

T1 sequence (P10809 27-573): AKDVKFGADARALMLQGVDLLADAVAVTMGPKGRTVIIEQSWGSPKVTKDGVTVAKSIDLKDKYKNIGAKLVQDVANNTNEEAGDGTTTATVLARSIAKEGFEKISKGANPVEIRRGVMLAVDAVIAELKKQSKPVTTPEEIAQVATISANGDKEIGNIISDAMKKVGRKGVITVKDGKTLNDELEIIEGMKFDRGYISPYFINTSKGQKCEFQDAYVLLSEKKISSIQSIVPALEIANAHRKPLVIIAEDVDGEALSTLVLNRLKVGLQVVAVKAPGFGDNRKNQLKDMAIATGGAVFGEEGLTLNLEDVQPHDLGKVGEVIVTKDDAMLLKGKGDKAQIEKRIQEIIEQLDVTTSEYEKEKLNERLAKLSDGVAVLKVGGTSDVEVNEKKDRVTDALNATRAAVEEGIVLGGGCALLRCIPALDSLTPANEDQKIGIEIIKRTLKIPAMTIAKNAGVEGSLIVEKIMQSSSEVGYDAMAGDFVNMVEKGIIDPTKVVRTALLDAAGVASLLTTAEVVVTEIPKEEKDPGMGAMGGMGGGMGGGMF

| Substance | Binding of concentration series of HSP60 to coated ligand |
| --- | --- |
| BSA-AGE | has been established |
| GSNKGAIIGLM [6BB6, Human Aβ (25-35)] | has been established |
| Hb: non-modified human haemoglobin control | did not bind |
| HbAGE: human haemoglobin glycated with glucose-6-phosphate for 75 weeks | has been established |
| KLVFFAE [6BB12, Human Aβ16-22] | did not bind |
| native BSA: non-modified bovine serum albumin control | did not bind |

From patent US20100015126A1, “Methods of Binding of Cross-Beta Structures By Chaperones” (priority 2006, published 2010)
